According to US20150266963A1 (ARGEN X B V, published 2015):

T1: recombinant human CD70 (Flag-TNC-CD70) (human, UniProt P32970 39-193)
T1 construct: extracellular domain; Captured by anti-Flag mAb in ELISA; as 'recombinant human CD70' immobilised on Biacore CM5 chips; TNC is for trimerisation; also called recombinant CD70; human recombinant CD70; not shown: Flag tag and TNC trimerisation domain
T1 sequence (looked up): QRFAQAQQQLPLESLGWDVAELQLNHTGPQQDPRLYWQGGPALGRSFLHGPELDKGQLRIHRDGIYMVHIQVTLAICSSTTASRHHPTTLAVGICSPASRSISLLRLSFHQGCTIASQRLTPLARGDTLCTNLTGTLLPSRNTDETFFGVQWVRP

T2: recombinant human CD27 Fc chimera (CD27-Fc) (human, UniProt P26842 21-192)
T2 construct: Bought reagent; also called recombinant CD27-Fc; Fc part of the bought chimera not given
T2 sequence (looked up): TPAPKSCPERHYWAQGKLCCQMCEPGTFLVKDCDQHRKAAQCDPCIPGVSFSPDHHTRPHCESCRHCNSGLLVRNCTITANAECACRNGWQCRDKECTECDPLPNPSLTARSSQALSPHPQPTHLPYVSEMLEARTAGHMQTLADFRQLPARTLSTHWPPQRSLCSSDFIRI


Columns and labels:
[1] = biological target: T1, recombinant human CD70 (Flag-TNC-CD70); assay: Biacore; recombinant human CD70 on CM5 chip; Fab injected
Procedure: Off-rates of the purified llama-derived anti-CD70 blocking Fabs were determined using the Biacore. Recombinant human CD70 was immobilized on a CM5 Biacore chip. The immobilization was performed in accordance with a method provided by Biacore and by using the NHS/EDC kit (Biacore AB): after activation of the chip, a solution of 50 μg/ml of recombinant CD70 in 10 mM acetate buffer with pH of 5 was prepared and 1 μl of this solution (50ng) was injected resulting in a surface density of approximately 1000 RU.
Fabs for the CD70 mAbs ARGX-110, MDX2H5 and SGN70 were prepared by […] digestion (SGN70 and MDX69A7 are described elsewhere herein, MDX2H5, also referred to as MDX1411, is described in WO2008/074004 FIGS. 1A and 1B). Fabs, at a concentration of approximately 100-400 μg/ml, were diluted 6-fold in hepes-buffered saline (0.1M Hepes, 1.5M NaCl, 30 mM EDTA, 0.5% v/v surfactant P20). They were injected (30 μl) and passed through the flow cells at a flow rate of 30 μl/min. After binding of the Fab to CD70, the off-rate was monitored for a period of 10 minutes. After the dissociation, the flow cell surfaces were regenerated by injecting 5 μl of 10 mM NaOH. Sometimes multiple injections of NaOH were needed to regenerate the surfaces depending on the affinity of the Fabs. Off-rate analysis was done by applying the BIAevaluation software. First, the sensogram of the blank runs were subtracted from those obtained with the coated flow cell. […] Moreover, the off-rate of CD27 for CD70 was determined as well.

[2] = biological target: T1, recombinant human CD70 (Flag-TNC-CD70); assay: inhibition ELISA: Flag-TNC-CD70 captured by anti-Flag mAb, Fab titrated, remaining binding of CD27-Fc detected
Procedure: From selected phage transfected into TG1, individual colonies were picked randomly for growth in 96 well plates. After IPTG induction according to standard protocols periplasmic fractions (penis) containing Fabs were prepared. […] In this assay, Flag-TNC-CD70 is captured by an anti-Flag mAb and binding of CD27-Fc is detected via a biotinylated anti-CD27 mAb and strep-HRP in the absence or presence of CD70 Fabs (FIGS. 2 and 3) or CD70 mAbs (FIG. 4). In FIG. 2B it can be seen that 27B3, which has an identical VH as 9D1, but contains a somewhat different light chain, seems to block binding of CD27 to CD70 more efficiently, which was in line with the better off rate of this Fab as measured on Biacore (data not shown). Table 3 indicates the blocking potency (expressed as IC50) for the various llama-human chimeric mAbs tested in the CD70 inhibition ELISA. […] FIG. 3 is a composite of an experiment testing llama CD70 Fabs for blocking activity (in the inhibition ELISA, see white bars) and for CD70 binding (binding ELISA, black bars). For the binding ELISA, Flag-TNC-CD70 is captured by an anti-Flag mAb and binding of the Fabs is detected using an anti-myc-HRP mAb, which recognizes the MYC tag fused to the C-terminus of the Fd fragment. For comparison purposes, known monoclonal antibodies to CD70 (SGN70 described in US 2010/0129362 A1, clone 1F6; and MDX69A7 described in WO2008/074004 FIGS. 5A and 5B) were tested in parallel. […] Of interest is clone 59D10, which as Fab has no blocking activity, but when converted into a chimeric IgG was antagonistic (see Table 3). Amino acid sequences of the VH and VL domains of binding and blocking llama-derived Fab clones are shown elsewhere herein (Tables 6-9).

[3] = biological target: T3, rhesus recombinant CD70 (FLAG-TNC-rhesus CD70) (rhesus); assay: Biacore; rhesus recombinant CD70 on chip; Fab injected
T3 construct: also called rhesus Flag-TNC-CD70

[4] = biological target: T2, recombinant human CD27 Fc chimera …; assay: ELISA; captured Flag-TNC-CD70

| Binder | koff [1] | IC50 (read off the curve) [2] | koff [3] | binding result [4] |
| --- | --- | --- | --- | --- |
| 19G10 Fab (Fab, V domains shown, Llama-derived Fab) VH: EVQLQESGGGVVQPGGSLRLSCAASGFTFDDYAMSWVRQAPGKGLEWVSSIYMYDSSTYYADSVKGRFTISTDNAKNTVYLQMNSLKSEDTAVYYCAKDINRSYGSSWSHFGPIFSSWGQGTQVTVSS VL: NFMLTQPSAVSVSLGQTARITCQGGYYTHWYQQKPGQAPVLVIYVNNNRPSGIPERFSGSSSGNTATLTISGAQAEDEAAYYCQSGSSSTIPVFGGGTKLTVLG | 8e-05 s⁻¹ | ~0.04 µg/mL | – | – |
| 4D2 Fab (Fab, V domains shown, Llama-derived Fab) VH: QVQLQESGPGLVKPSQTLSLACTVSGGSITTSYYYWSWIRQPPGKGLEWMGAIGSRGSTYYSPSLKTRTSISRDTSKNQFTLQLSSVTPEDTAVYYCARVTGEITYNSGSYYYTLNLFDYWGQGTQVTVSS VL: QSVLTQPPSLSASPGSSVRLTCTLSSGNSVGNYDISWYQQKAGSPPRYLLYYYSDSYKNQGSGVPSRFSGSKDPSANAGLLLISGLQAEDEADYYCSVSNSGTYKPVFGGGSKLTVLG | 0.00033 s⁻¹ | ~1 nM | 0.00029 s⁻¹ | – |
| 9D1 Fab (Fab, V domains shown, Llama-derived Fab) VH: EVQLVESGGGLVQPGGSLRLSCAASGFTFSVYYMNWVRQAPGKGLEWVSDINNEGGTTYYADSVKGRFTISRDNAKNTLTLQMNSLKPEDTALYYCVRDAGYSNHVPIFDSWGQGTQVIVAS VL: QAVVTQEPSLSVSPGGTVTLTCGLSSGSVTSSHYPGWYQQTPGQAPRLLIFNTNSRHSGVPSRFSGSISGNKAALTITGAQPEDEADYYCALLNIDDGSTMFGGGTHLTVLG | 0.00048 s⁻¹ | ~0.2 µg/mL | 0.0002 s⁻¹ | – |
| 24F2 Fab (Fab, V domains shown, Llama-derived Fab) VH: EVQLVESGGGLVQPGGSLRLSCAASGFTFSVYYMNWVRQAPGKGLEWVSDINNEGGTTYYADSVKGRFTISRDNAKNTLTLQMNSLKPEDTALYYCVRDAGYSNHVPIFDSWGQGTQVIVAS VL: QSALTQPSAVSVSLGQTARITCRGDTLRNYHANWYRQKPGQAPVLVIYGDDIRPSGIPERFSGSRLGGTATLTVSGAQAEDEADYYCQSSDSSGYRVVFGGGTKLTVLG | 0.00016 s⁻¹ | ~0.04 µg/mL | – | – |
| 9B2 Fab (Fab, V domains shown, Llama-derived Fab) VH: QLQVVESGGGLMQPGGSLRLSCAASGFTFSGSAMSWVRQAPGKGLEWVSSIYSHSMYTYYADSVKSRFTISTDNAKNTLYLQMNSLKPDDTAVYYCAASSDYEGLFVSWGQGTQVTVSS VL: QAVLTQPPSLSASPGSSVRLTCTLNSANSVGSYDISWYQQKAGSPPRYLLYYYSDSLSHQGSGVPSRFSGSTDASANAGLLLISGLQPEDEADYYCSAYNRGSHVFGGGTKLTVLG | 0.00028 s⁻¹ | ~4 nM | 0.00061 s⁻¹ | – |
| 24B6 Fab (Fab, V domains shown, Llama-derived Fab) VH: EVQLQESGGGVVQPGGSLRLSCAASGFTFDDYAMSWVRQAPGKGLEWVSSIYMYDSSTYYADSVKGRFTISTDNAKNTVYLQMNSLKSEDTAVYYCAKDINRSYGSSWSHFGPIFSSWGQGTQVTVSS VL: QPVLTQPSAVSVSLGQTARITCQGGYYTHWYQQKPGQAPVLVIYINNNRPSGIPERFSGSISGNTATLTISGAQVEDEADYYCQSGSSSTIPVFGGGTKLTVLG | 0.0001 s⁻¹ | ~0.04 µg/mL | – | – |
| 5F4 Fab (Fab, V domains shown, Llama-derived Fab) VH: EVQVQESGGGLVHPGGSLKLSCAASGFTFDTYAMSWVRQAPGKGLEWVSAISWSGGETFYAESMKGRFTISRNNAKNTLYLQMNSLKSEDTAVYYCARGMGLAEGLTDWGQGTQVTVSS VL: QAVVTHPPSLSASPGSSVRLTCTLISGDNIGGYDISWYQQKTGSPPRYLLYYYSDSYKHQSSGVPSRFSGSKDASANAGLLLISGLQSEDEADYYCSAYKSGSYKAPVFGGGTHLTVLG | 8e-05 s⁻¹ | ~0.2 µg/mL | 0.0005 s⁻¹ | – |
| 9G2 Fab (Fab, V domains shown, Llama-derived Fab) VH: QVQLVESGGGLMQPGGSLRLSCAASGFTFSSSAMSWVRQAPGKGLEWVSSIYSDSSYTYYADSVKSRFTISTDNAKNTLYLQMNSLKPDDTAVYYCAGSSDYEGSFASWGQGTQVTVSS VL: QSVVTQPPSLSASPGSSVRLTCTLSSGNSVGNYDISWYQQKAGSPPRYLLYYYSDSVKHQGSGVPSRFSGSSDASANAGLLLISGLQPEDEADYYCSAYKSGSHVFGGGTKLTVLG | 0.00018 s⁻¹ | ~2 nM | 0.00018 s⁻¹ | – |
| human-mouse CD70 chimera chim-1 (Flag-TNC-CD70) (ligand, Soluble homotrimer held by the TNC domain; one CD70 ECD chain is given., also called chimera 1; not shown: N-terminal Flag tag, TNC (tenascin-C) trimerisation domain and any linkers of the Flag-TNC-CD70 construct) HPEPHTAELQLNLTVPRKDPTLRWGAGPALGRSFLHGPELDKGQLRIHRDGIYMVHIQVTLAICSSTTASRHHPTTLAVGICSPASRSISLLRLSFHQGCTIASQRLTPLARGDTLCTNLTGTLLPSRNTDETFFGVQWVRP | – | – | – | binds |
| human-mouse CD70 chimera chim-2.1 (Flag-TNC-CD70) (ligand, Soluble homotrimer held by the TNC domain; one CD70 ECD chain is given., also called chimera 2.1; not shown: N-terminal Flag tag, TNC (tenascin-C) trimerisation domain and any linkers of the Flag-TNC-CD70 construct) HPEPHTAELQLNLTVPRKDPTLRWGAGPALGRSFTHGPELDKGQLRIHRDGIYMVHIQVTLAICSSTTASRHHPTTLAVGICSPASRSISLLRLSFHQGCTIASQRLTPLARGDTLCTNLTGTLLPSRNTDETFFGVQWVRP | – | – | – | binds |
| human-mouse CD70 chimera chim-2.2 (Flag-TNC-CD70) (ligand, also called chimera 2.2; not shown: N-terminal Flag tag, TNC trimerisation domain and any linkers of the Flag-TNC-CD70 construct) HPEPHTAELQLNLTVPRKDPTLRWGAGPALGRSFTHGPELEEGHLRIHRDGIYMVHIQVTLAICSSTTASRHHPTTLAVGICSPASRSISLLRLSFHQGCTIASQRLTPLARGDTLCTNLTGTLLPSRNTDETFFGVQWVRP | – | – | – | binds |
| 1C2 Fab (Fab, V domains shown, Llama-derived Fab) VH: ELQVVESGGGLVQPGGSLRLSCAASGFTLSNYWMHWVRQAPRKGLEWVSTISTDNSRTYYADSVKGRFTISRDHAKNTLILQMNSLKSEDTAVYYCIRGSDYEHWGQGTQVTVSS VL: QTVVTQEPSLSVSPGGTVTLTCGLSSGSVTTTNYPGWFQQTPGQAPRTLIYSTSSRHSGVPSRFSGSISGNKAALTITGAQPEDEADYYCALEEIGSYTYMFGGGTHLTVLG | – | – | 0.00032 s⁻¹ | – |
| 9E1 Fab (Fab, V domains shown, Llama-derived Fab) VH: EVQLQESGGGVVQPGGSLRLSCAASGFTFDDYAMSWVRQAPGKGLEWVSSIYMYDSSTYYADSVKGRFTISTDNAKNTVYLQMNSLKSEDTAVYYCAKDINRSYGSSWSHFGPIFSSWGQGTQVTVSS VL: QAVVTQEPSLSVSPGGTVTLTCGLTSGSVTSSNYPDWYQQTPGQAPRLLIYNTNSRHSGVPSRFSGSISGNKAALTITGAQPEDEADYYCNLYMGSGGSKVFGGGTKLTVLG | 0.00019 s⁻¹ | – | 0.0002 s⁻¹ | – |
| 57B6 Fab (Fab, V domains shown, Llama-derived Fab) VH: QLQLVESGGGLVQPGGSLRLSCAASGFSFSHYAMSWVRQAPGKGLEWVSGDNTYDGGTRYQDSVKGRFTISRDNGKNTLYLQMNSLKPEDTAVYYCAKDTGRGIMGEYGMDYWGKGTLVTVSS VL: QTVVTQEPSLSVSPGGTVTLTCGLKSGSVTSSNYPAWYQQTPGQAPRLLIYNTNSRHSGVPSRFSGSISGNKAALTITGAQPEDEADYYCALYMGSGSANAMFGGGTHLTVLG | 0.0001 s⁻¹ | – | 4e-05 s⁻¹ | – |
